Experiment [1] concerns the target T1, HLA-A*02:01 presenting MAGE-A4 286-294 peptide (…) (human).
T1 construct: On peptide-pulsed T2 cells
The experiment in a line: flow cytometry, peptide-pulsed T2 cells.
Method: Samples were run on an Intellicyt iQue flow cytometer (Intellicyt) and results were analyzed using Forecyte analysis software (Intellicyte) to calculate the mean fluorescent intensity (MFI) after gating for live cells. MFI values were plotted in Graphpad Prism using a four-parameter logistic equation over a 12-point response curve to calculate EC₅₀ values. The secondary antibody alone (i.e. no primary antibody) for each dose-response curve is also included in the analysis as a continuation of the three-fold serial dilution and is represented as the lowest dose. The signal to noise (S/N) was determined by taking the ratio of the highest MFI on the dose response curve to the MFI in the secondary alone wells.

Experiment [2] addresses T2, HLA-A*02:01 presenting THBS3 116-125 peptide (…) (human).
T2 construct: On peptide-pulsed T2 cells
The experiment in a line: flow cytometry, peptide-pulsed T2 cells. (In general: Flow cytometry measures light scatter and fluorescence of single cells or particles in a stream.)

Experiment [3] addresses T3, HLA-A*02:01 presenting LPIN2 823-832 peptide (…) (human).
T3 construct: On peptide-pulsed T2 cells
As to the kind of experiment: flow cytometry, peptide-pulsed T2 cells.

For experiment [4], the target named is T4, HLA-A*02:01 presenting SCL25A19 111-120 peptide (…) (human).
T4 construct: On peptide-pulsed T2 cells
The experiment in a line: flow cytometry, peptide-pulsed T2 cells.

For experiment [5], the target named is T5, HLA-A*02:01 presenting CELSR3 1594-1603 peptide (…) (human).
T5 construct: On peptide-pulsed T2 cells
The experiment in a line: flow cytometry, peptide-pulsed T2 cells.

The target in experiment [6] is T6, HLA-A*02:01 presenting PAPPA2 307-316 peptide (…) (human).
T6 construct: On peptide-pulsed T2 cells
As to the kind of experiment: flow cytometry, peptide-pulsed T2 cells.

Experiment [7] addresses T7, HLA-A*02:01 presenting FAT4 4053-4062 peptide (…) (human).
T7 construct: On peptide-pulsed T2 cells
As to the kind of experiment: flow cytometry, peptide-pulsed T2 cells.

The target in experiment [8] is T8, HLA-A*02:01 presenting MAGE-A10 254-263 peptide (…) (human).
T8 construct: On peptide-pulsed T2 cells
As to the kind of experiment: flow cytometry, peptide-pulsed T2 cells.

Experiment [9] concerns the target T9, HLA-A*02:01 presenting CCDC36 417-426 peptide (…) (human).
T9 construct: On peptide-pulsed T2 cells
As to the kind of experiment: flow cytometry, peptide-pulsed T2 cells.

Experiment [10] concerns the target T10, HLA-A*02:01 presenting MAGE-A4 230-239 peptide (…) (human).
T10 construct: On peptide-pulsed T2 cells
The experiment in a line: flow cytometry, peptide-pulsed T2 cells.
Method: (§1) Samples were run on an IntelliCyt iQue flow cytometer (Intellicyt) and results were analyzed using Forecyte analysis software (Intellicyt) to calculate the mean fluorescent intensity (MFI) after gating for live cells. MFI values were plotted in Graphpad Prism using a four-parameter logistic equation over a 12-point response curve to calculate EC50 values. The secondary antibody alone (i.e., no primary antibody) for each dose-response curve was also included in the analysis as a continuation of the three-fold serial dilution and was represented as the lowest dose. The signal to noise (S/N) was determined by taking the ratio of the highest MFI on the dose response curve to the MFI in the secondary-alone wells.

Experiment [11] has as its target T10, HLA-A*02:01 presenting MAGE-A4 230-239 …. As to the kind of experiment: flow cytometry, peptide-pulsed T2 cells, 100 nM antibody.
Method: as §1
Experiment [12] deals with T11, HLA-A*02:01 presenting MAGE-A8 232-241 peptide (…) (human).
T11 construct: On peptide-pulsed T2 cells
The experiment is described as above.
Method: as §1

In experiment [13] the target is T2, HLA-A*02:01 presenting THBS3 116-125 …. The description is as above.
Method: as §1
Experiment [14] addresses T3, HLA-A*02:01 presenting LPIN2 823-832 …. The experiment is described as above.
Method: as §1
Experiment [15] deals with T4, HLA-A*02:01 presenting SCL25A19 111-120 …. The experiment is described as above.
Method: as §1
The target of experiment [16] is T5, HLA-A*02:01 presenting CELSR3 1594-1603 …. The description is as above.
Method: as §1
Experiment [17] concerns the target T6, HLA-A*02:01 presenting PAPPA2 307-316 …. The experiment is described as above.
Method: as §1
Experiment [18] concerns the target T7, HLA-A*02:01 presenting FAT4 4053-4062 …. Described as above.
Method: as §1
Experiment [19] deals with T8, HLA-A*02:01 presenting MAGE-A10 254-263 …. Described as above.
Method: as §1
For experiment [20], the target named is T9, HLA-A*02:01 presenting CCDC36 417-426 …. The description is as above.
Method: as §1

B1: mAbM31339N (antibody, V domains shown)
VH: QVQLVESGGGLVKPGGSLRLSCAASGFTFSEYYLTWIRQAPGKGLDWIAYISSSGYNIYYADSVKDRFTISRDNGNNSLFLQMNNLRAEDTAVYFCAREGVTDGMDVWGQGTTVTVSS
VL: DIQMTQSPSSLSASVGDRVTITCRASQSIDTFLNWYQQKPGKVPKLLIYAASNLESGVPSRFSGSGSGTVFTLTISRLQPEDFATYYCQQSYSIPPITFGQGTRVEIK
notes: Human variable regions with a mouse constant region (detected with anti-mouse Fc secondary; its isotype control is mIgG2a); also called mAb31339N
Take B1: the EC50 (in general, the concentration giving half of the maximal effect) in experiment [1] was found to be 1.7 nM.

B2: mAbM34852N (antibody, V domains shown)
VH: EVQLLESGGGLVQPGGSLRLTCAASGFTFRSYAMSWVRQAPGKGLEWVSTISGNSDSTYYADSVKGRFTISRENSKNTLYLQMNSLRAEDTAVYYCAKDLHITMVRGAIPADVFDIWGQGTMVTVSS
VL: not shown
notes: Mouse constant region (detected with anti-mouse Fc secondary)
B2: the binding result in experiment [2], in experiment [3], in experiment [4], in [5], in experiment [6] and in [7] was “no binding (tested: 100 nM)” each time. Besides, the binding result in experiment [8] and in [9] was “no binding (tested: 100 nM)” throughout. Further, a half-maximal effect in [10] (EC50) was put at 4.7 nM. Further, the “Antibody Binding Ratio (pulsed cell MFI/Unpulsed cell MFI)” value in [11] was 513; in experiment [12], 870; in experiment [13], 1; in [14] it was 0.9; in experiment [15], 0.8; in experiment [16], 0.8. Moreover, the “Antibody Binding Ratio (pulsed cell MFI/Unpulsed cell MFI)” value in experiment [17] worked out at 0.9; in experiment [18], 1; in [19] it was 0.9; in experiment [20], 1.

The record behind these values is patent US20240226163A1 (Regeneron, published 2024).
